Data on 6 molecules can be found in patent US20260193334A1 (ZOETIS SERVICES, published 2026).

Test [1] addresses T1, canine FcRn complex (FcRn-α subunit and β-microglobulin) (canine, UniProt A0A8I3PFR8 25-347, biotin labeled through BirA enzymatic reaction in Example 5). The experiment in a line: SPR (Biacore), FcRn amine-coupled on CM5, IgG as analyte, pH 6, 15 C.
In test [2] the target is TGFβ (target protein of mAb3). The experiment in a line: cell-based or functional assay.
The target of test [3] is T1, canine FcRn complex (FcRn-α subunit and …). The experiment in a line: SPR (Biacore), FcRn amine-coupled on CM5, IgG as analyte, pH 7.2, 15 C. For orientation: Surface plasmon resonance follows binding to a sensor surface in real time, without labels.
The target in test [4] is NGF (target protein of mAb2). The experiment in a line: cell-based or functional assay.
Test [5] addresses canine FcRn complex (FcRn-α subunit and β-microglobulin) (canine). The experiment in a line: SPR (Biacore), FcRn amine-coupled on CM5, IgG as analyte, pH 6, 15 C.
Test [6] shares this target. The experiment in a line: SPR (Biacore), FcRn amine-coupled on CM5, IgG as analyte, pH 7.2, 15 C.
For test [7], the target named is IL-31 (target protein of mAb1). The experiment in a line: cell-based or functional assay.

A word on the Kd: it is the free concentration of one partner at which half of the binding sites on the other are occupied at equilibrium, for simple one-to-one binding.

Where a chain is given by its changes, count along the chain named. In names and notes the source's numbering stands.

T1 sequence (A0A8I3PFR8 entry or part of it, one chain of several): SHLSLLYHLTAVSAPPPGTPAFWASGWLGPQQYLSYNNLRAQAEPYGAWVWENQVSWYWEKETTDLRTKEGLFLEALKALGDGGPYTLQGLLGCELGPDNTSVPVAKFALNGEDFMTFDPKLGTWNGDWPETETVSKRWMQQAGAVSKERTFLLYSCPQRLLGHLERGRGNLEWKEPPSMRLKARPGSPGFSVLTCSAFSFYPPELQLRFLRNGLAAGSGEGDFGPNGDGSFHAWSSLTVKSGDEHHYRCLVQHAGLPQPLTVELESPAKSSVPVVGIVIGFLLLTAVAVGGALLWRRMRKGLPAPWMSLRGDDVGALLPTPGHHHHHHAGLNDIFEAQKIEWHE

B1: anti-TGFβ antibody ZTS-4155, canine IgGB (65), wild-type (antibody)
heavy: EVQLVQSGAEVKKPGASVKVSCKTSGYTFITYWMNWVRQAPGAGLDWMGQIFPASGSTNYNEMFEGRVTLTADTSTSTAYMELSSLRAGDIAVYYCARGDGNYALDAMDYWGQGTLVTASTTAPSVFPLAPSCGSTSGSTVALACLVSGYFPEPVTVSWNSGSLTSGVHTFPSVLQSSGLYSLSSMVTVPSSRWPSETFTCNVAHPASKTKVDKPVPKRENGRVPRPPDCPKCPAPEMLGGPSVFIFPPKPKDTLLIARTPEVTCVVVDLDPEDPEVQISWFVDGKQMQTAKTQPREEQFNGTYRVVSVLPIGHQDWLKGKQFTCKVNNKALPSPIERTISKARGQAHQPSVYVLPPSREELSKNTVSLTCLIKDFFPPDIDVEWQSNGQQEPESKYRTTPPQLDEDGSYFLYSKLSVDKSRWQRGDTFICAVMHEALHNHYTQESLSHSPGK
VL: DIVMTQTPPSLSVSPRETASISCRASESVDSYGNSFMHWYLQKPGQSPQLLIYLASNLESGVSDRFSGSGSGTDFTLRISRVEANDTGVYYCQQNNEDPLTFGQ
notes: built here as variable domain plus IgGB constant domain; also called mAb3 WT
As for B1, the affinity in test [1], expressed as Kd, was 523 nM. In test [2], this molecule yielded an IC50 (cell based potency assay) of 0.13 µg/mL.

B2: anti-TGFβ antibody ZTS-4155, canine IgGB (65), N434Y (antibody)
chain 1: EVQLVQSGAEVKKPGASVKVSCKTSGYTFITYWMNWVRQAPGAGLDWMGQIFPASGSTNYNEMFEGRVTLTADTSTSTAYMELSSLRAGDIAVYYCARGDGNYALDAMDYWGQGTLVTVSSASTTAPSVFPLAPSCGSTSGSTVALACLVSGYFPEPVTVSWNSGSLTSGVHTFPSVLQSSGLYSLSSMVTVPSSRWPSETFTCNVAHPASKTKVDKPVPKRENGRVPRPPDCPKCPAPEMLGGPSVFIFPPKPKDTLLIARTPEVTCVVVDLDPEDPEVQISWFVDGKQMQTAKTQPREEQFNGTYRVVSVLPIGHQDWLKGKQFTCKVNNKALPSPIERTISKARGQAHQPSVYVLPPSREELSKNTVSLTCLIKDFFPPDIDVEWQSNGQQEPESKYRTTPPQLDEDGSYFLYSKLSVDKSRWQRGDTFICAVMHEALHYHYTQESLSHSPGK
chain 2: DIVMTQTPPSLSVSPRETASISCRASESVDSYGNSFMHWYLQKPGQSPQLLIYLASNLESGVSDRFSGSGSGTDFTLRISRVEANDTGVYYCQQNNEDPLTFGQGTKLEIKRNDAQPAVYLFQPSPDQLHTGSASVVCLLNSFYPKDINVKWKVDGVIQDTGIQESVTEQDKDSTYSLSSTLTMSSTEYLSHELYSCEITHKSLPSTLIKSFQRSEC
B2: the Kd in test [3] is 38.6 nM; in test [1] it was 1.56 nM.

B3: caninized anti-NGF antibody mAb2 of Tables 1-3, canine IgGB (65), wild-type (antibody, part only; not given: Anti-NGF heavy and light variable domains, part only)
heavy, part: ASTTAPSVFPLAPSCGSTSGSTVALACLVSGYFPEPVTVSWNSGSLTSGVHTFPSVLQSSGLYSLSSMVTVPSSRWPSETFTCNVAHPASKTKVDKPVPKRENGRVPRPPDCPKCPAPEMLGGPSVFIFPPKPKDTLLIARTPEVTCVVVDLDPEDPEVQISWFVDGKQMQTAKTQPREEQFNGTYRVVSVLPIGHQDWLKGKQFTCKVNNKALPSPIERTISKARGQAHQPSVYVLPPSREELSKNTVSLTCLIKDFFPPDIDVEWQSNGQQEPESKYRTTPPQLDEDGSYFLYSKLSVDKSRWQRGDTFICAVMHEALHNHYTQESLSHSPGK
As for B3, in test [4], the IC50 (cell based potency assay) was 23.7 nM. In addition, in test [5], the Kd turned out to be 57.2 nM.

B4: caninized anti-NGF antibody mAb2 of Tables 1-3, canine IgGB (65), N434H (antibody, part only; not given: Anti-NGF heavy and light variable domains, part only)
heavy, part: B3 heavy, part with N322H
On to B4, for which the Kd worked out at 1300 nM in test [6] and 7.3 nM in test [5]. The same molecule yielded an IC50 (cell based potency assay) in test [4] of 20.9 nM.

B5: caninized anti-IL31 antibody 34D03, canine IgGB (65), wild-type (antibody)
heavy: EVQLVESGGDLVKPGGSLRLSCVASGFTFSNYGMSWVRQAPGKGLQWVATISYGGSYTYYPDNIKGRFTISRDNAKNTLYLQMNSLRAEDTAMYYCVRGYGYDTMDYWGQGTLVTVSSASTTAPSVFPLAPSCGSTSGSTVALACLVSGYFPEPVTVSWNSGSLTSGVHTFPSVLQSSGLYSLSSMVTVPSSRWPSETFTCNVAHPASKTKVDKPVPKRENGRVPRPPDCPKCPAPEMLGGPSVFIFPPKPKDTLLIARTPEVTCVVVDLDPEDPEVQISWFVDGKQMQTAKTQPREEQFNGTYRVVSVLPIGHQDWLKGKQFTCKVNNKALPSPIERTISKARGQAHQPSVYVLPPSREELSKNTVSLTCLIKDFFPPDIDVEWQSNGQQEPESKYRTTPPQLDEDGSYFLYSKLSVDKSRWQRGDTFICAVMHEALHNHYTQESLSHSPGK
VL: EIVMTQSPASLSLSQEEKVTITCKASQSVSFAGTGLMHWYQQKPGQAPKLLIYRASNLEAGVPSRFSGSGSGTDFSFTISSLEPEDVAVYYCQQSREYPWTFGQGTKLEIK
notes: also called mAb1 WT; ID No. 8
B5 yielded a Kd in test [1] of 15 to 24.4 nM. The same molecule registered an IC50 (cell based potency assay) in test [7] of 1.1 nM.

B6: caninized anti-IL31 antibody 34D03, canine IgGB (65), N434H (antibody)
heavy: B5 heavy with N440H
VL: B5 VL
notes: also called mAb1 N434H; ID No. 31
For B6, the Kd in test [3] is 5000 nM; in test [1] it was 0.7 to 1.3 nM. The IC50 (cell based potency assay) in test [7] amounted to 0.99 nM.
